Publication PMC6949295 (2020)

B1: Exo70-Flag [rat] / HA-Sec6 [not stated] (parent)
chain 1: MIPPQEASARRREIEDKLKQEEETLSFIRDSLEKSDQLTKNMVSILSSFESRLMKLENSIIPVHKQTENLQRLQENVEKTLSCLDHVISYYHVASDTEKIIREGPTGRLEEYLGSMAKIQKAVEYFQDNSPDSPELNKVKLLFERGKESLESEFRSLMTRHSKVISPVLVLDLISADDELEVQEDVVLEHLPESVLQDVIRISRWLVEYGRNQDFMNVYYQIRSSQLDRSIKGLKEHFRKSSSSSGVPYSPAIPNKRKDTPTKKPIKRPGRDDMLDVETDAYIHCVSAFVRLAQSEYQLLMGIIPEHHQKKTFDSLIQDALDGLMLEGENIVSAARKAIIRHDFSTVLTVFPILRHLKQTKPEFDQVLQGTAASTKNKLPGLITSMETIGAKALEDFADNIKNDPDKEYNMPKDGTVHELTSNAILFLQQLLDFQETAGAMLASQETSSSATSYNSEFSKRLLSTYICKVLGNLQLNLLSKSKVYEDPALSAIFLHNNYNYILKSLEKSELIQLVAVTQKTAERSYREHIEQQIQTYQRSWLKVTDYIAEKNLPVFQPGVKLRDKERQMIKERFKGFNDGLEELCKIQKAWAIPDTEQRDKIRQAQKSIVKETYGAFLHRYSSVPFTKNPEKYIKYRVEQVGDMIDRLFDTSA
chain 2: MCKDSACFSTMKETDLEAVATAVQRVAGMLQRPDQLDKVEQYRRREARKKASVEARLKAAIQSQLDGVRTGLSQLHNALNDVKDIQQSLADVSKDWRQSINTIESLKDVKDAVVQHSQLAAAVENLKNIFSVPEIVRETQDLIEQGALLQAHRKLMDLECSRDGLMCEQYRMDSGNKRDMTLIHGYFGSTQGLSDELAKQLWMVLQRSLVTVRRDPTLLVSVVRIIEREEKIDRRILDRKKQTGFVPPGRPKNWKEKMFAVLDRTVTTRIEGTQADTRESDKMWLVRHLEIIRKYVLDDLVIAKNLLVQCFPPHYDIFKNLLSMYHQALSIRMQDLASEDLEANEIVSLLTWVLNTYTSAEMMGNVELAPEVDVNALEPLLSPNVVSELLDTYMSTLTSNIIAWLRKALETDKKDWSKETEPEADQDGYYQTTLPAIVFQMFEQNLQVAAQISEDLKTKVLVLCLQQMNSFLSRYKEEAQLYKEEHLRNRQHPHCYVQYMVAIINNCQTFKESIISLKRKYLKPETEESLCQSQPSMDGILDAIAKEGCSSLLEEVFLDLEQHLNELMTKKWMLGSNAVDIICVTVEDYFNDFAKIKKPYKKRMTAEAHRRVVVEYLRAVMQKRISFRSAEERKEGAEKMVREAEQLRFLFRKLASGFGEDADGHCDTIVAVAEVIKLTDPSLLYLEVSTLVSKYPDIRDDHIGALLALRGDASRDMKQTIMETLEQGPMQASPNYVPIFQEIVVPSLNVAKLLK
B2: Exo70-Flag [rat] / HA-Sec8 [not stated] (parent)
chain 1: B1 chain 1
chain 2: MAAEAAGGKYRSTVSKSKDPSGLLISVIRTLSTSDDVEDRENEKGRLEEAYEKCDRDLDELIVQHYTELTTAIRTYQSITERITNSRNKIKQVKENLLSCKMLLHCKRDELRKLWIEGIEHKHVLNLLDEIENIKQVPQKLEQCMASKHYLSATDMLVSAVESLEGPLLQVEGLSDLRLELHSKKMNLHLVLIEELHRHLYIKSTSRVVQRNKEKGKMSSHGKDASPGPLIDVSNISTPRKFLDATQYSAAGSSSVREMNLQDIKEDLDCDPEENSTLFMGILIQGLARLKKIPETVKAIKERLEQELKQIVKRSTTQVADSAYQRGESLTVDNQPRLLLELLELLFDKFNAVASAHSIVLGYLQDSVGTQPTQQEEIKLYDMADVWVKIQDVLQMLLTEYLDMKNTRTASEPSAQLSYASTGREFAAFFAKKKPQRPKNSLFKFESSSHAISMSAYLREQRRELYSRSGELQGGPDDNLIEGGGTKFVCKPGARNITVIFHPLLRFIQEIEHALGLGPAKQCLLREFLTIYIKNIFLNQVLTEINKEIEGVTKTSDPLKILANADTMKVLGVQRPLLQSTIIVEKTVQDLMNLMHDLSAYSDQFLNMVCVKLQEYKDTCSTAYRGIVQSEEKLVISASWAKDDDISRLLKSLPNWTNMAQPKQLRPKREEEEDFIRAAFGKESEVLIGNLGDKLIPPQDILRDVSDLKALANMHESLEWLAGRTKSAFSSLSASQMLSPAQESHVNMDLPPVSEQIMQTLSELAKSFQDMADRCLLVLHLEVRVHCFHYLIPLAKEGNYAIVANVESMDYDPLVVKLNKDISAMEEAMSASLQQHKFQYIFEGLGHLISCILINGAQYFRRISESGIKKMCRNIFVLQQNLTNITMSREADLDFARQYYEMLYNTADELLNLVVDQGVKYTELEYIHALTLLHRSQTGVGDQTTQNTRLQRLKEIICEQAAIKQATKDKKITTV
B3: Exo70 wild type, HA-tagged and Flag-tagged copies co-expressed [rat] / itself (parent)
chain: B1 chain 1

Variants of: B1
Test: co-immunoprecipitation (IP: HA, blot: Flag)
Details: with HA-Sec6; 293T cells; parent: 1

response (relative band intensity) | Variant
0.31 | chain 1 S47D S59D S89D

Variants of: B2
Test: co-immunoprecipitation (IP: HA, blot: Flag)
Details: with HA-Sec8; 293T cells; parent: 1.03

response (relative band intensity) | Variant
0.45 | chain 1 S47D S59D S89D

Variants of: B3
Test: co-immunoprecipitation (IP: HA, blot: Flag)
Details: with itself; 293T cells; parent: 1

response (relative band intensity) | Variant
0.03 | chain 1 S47D S59D S89D
0.41 | chain 1 S59D S89D
0.18 | chain 1 S47D S89D
0.46 | chain 1 S89D

Same assay, conditions: with itself; 293T cells; with Myc-ULK1 co-expressed; parent: 0.35

response (relative band intensity) | Variant
1.16 | chain 1 S59A
1 | chain 1 S89A

The next lines start with the variant.

Variant | response (relative band intensity)
chain 1 S47A | 0.87
chain 1 S47A S59A S89A | 2.44

Same assay, conditions: with itself; 293T cells; without Myc-ULK1; parent: 1

response (relative band intensity) | Variant
1.31 | chain 1 S59A
1.17 | chain 1 S89A

Continued, variant first:

Variant | response (relative band intensity)
chain 1 S47A | 1
chain 1 S47A S59A S89A | 1.49
